20 molecules from US20210388087A1 can be followed below.

First the molecules themselves.
B1: dBBDu183H S100aE / dBBDu072L (antibody, name in Kabat numbering, V domains shown)
VH: QVQLVESGGGLVQPGRSLRLSCAASGFTFSNAWMHWVRQAPGKGLEWVAQIKDKGNAYAAYYAPSVKGRFTISRDDSKNSIYLQMNSLKTEDTAVYYCHYVHYASAETVLPAFGVDAWGQGTTVTVSS
VL: DIVMTQSPLSLPVTPGEPASISCQASQELVHMNRNTYLHWYQQKPGQAPRLLIYKVSNRFPGVPDRFSGSGSGTDFTLKISRVEAEDVGVYYCAQGTSVPFTFGQGTKLEIK
B2: dBBDu183H Y94K / dBBDu072L (antibody, name in Kabat numbering, V domains shown)
VH: QVQLVESGGGLVQPGRSLRLSCAASGFTFSNAWMHWVRQAPGKGLEWVAQIKDKGNAYAAYYAPSVKGRFTISRDDSKNSIYLQMNSLKTEDTAVYYCHKVHYASASTVLPAFGVDAWGQGTTVTVSS
VL: DIVMTQSPLSLPVTPGEPASISCQASQELVHMNRNTYLHWYQQKPGQAPRLLIYKVSNRFPGVPDRFSGSGSGTDFTLKISRVEAEDVGVYYCAQGTSVPFTFGQGTKLEIK
B3: dBBDu183H G100hE / dBBDu072L (antibody, name in Kabat numbering, V domains shown)
VH: QVQLVESGGGLVQPGRSLRLSCAASGFTFSNAWMHWVRQAPGKGLEWVAQIKDKGNAYAAYYAPSVKGRFTISRDDSKNSIYLQMNSLKTEDTAVYYCHYVHYASASTVLPAFEVDAWGQGTTVTVSS
VL: DIVMTQSPLSLPVTPGEPASISCQASQELVHMNRNTYLHWYQQKPGQAPRLLIYKVSNRFPGVPDRFSGSGSGTDFTLKISRVEAEDVGVYYCAQGTSVPFTFGQGTKLEIK
B4: dBBDu183H V95H / dBBDu072L (antibody, name in Kabat numbering, V domains shown)
VH: QVQLVESGGGLVQPGRSLRLSCAASGFTFSNAWMHWVRQAPGKGLEWVAQIKDKGNAYAAYYAPSVKGRFTISRDDSKNSIYLQMNSLKTEDTAVYYCHYHHYASASTVLPAFGVDAWGQGTTVTVSS
VL: DIVMTQSPLSLPVTPGEPASISCQASQELVHMNRNTYLHWYQQKPGQAPRLLIYKVSNRFPGVPDRFSGSGSGTDFTLKISRVEAEDVGVYYCAQGTSVPFTFGQGTKLEIK
B5: dBBDu183H A102H / dBBDu072L (antibody, name in Kabat numbering, V domains shown)
VH: QVQLVESGGGLVQPGRSLRLSCAASGFTFSNAWMHWVRQAPGKGLEWVAQIKDKGNAYAAYYAPSVKGRFTISRDDSKNSIYLQMNSLKTEDTAVYYCHYVHYASASTVLPAFGVDHWGQGTTVTVSS
VL: DIVMTQSPLSLPVTPGEPASISCQASQELVHMNRNTYLHWYQQKPGQAPRLLIYKVSNRFPGVPDRFSGSGSGTDFTLKISRVEAEDVGVYYCAQGTSVPFTFGQGTKLEIK
B6: dBBDu183H D101H / dBBDu072L (antibody, name in Kabat numbering, V domains shown)
VH: QVQLVESGGGLVQPGRSLRLSCAASGFTFSNAWMHWVRQAPGKGLEWVAQIKDKGNAYAAYYAPSVKGRFTISRDDSKNSIYLQMNSLKTEDTAVYYCHYVHYASASTVLPAFGVHAWGQGTTVTVSS
VL: DIVMTQSPLSLPVTPGEPASISCQASQELVHMNRNTYLHWYQQKPGQAPRLLIYKVSNRFPGVPDRFSGSGSGTDFTLKISRVEAEDVGVYYCAQGTSVPFTFGQGTKLEIK
B7: dBBDu183H G100hH / dBBDu072L (antibody, name in Kabat numbering, V domains shown)
VH: QVQLVESGGGLVQPGRSLRLSCAASGFTFSNAWMHWVRQAPGKGLEWVAQIKDKGNAYAAYYAPSVKGRFTISRDDSKNSIYLQMNSLKTEDTAVYYCHYVHYASASTVLPAFHVDAWGQGTTVTVSS
VL: DIVMTQSPLSLPVTPGEPASISCQASQELVHMNRNTYLHWYQQKPGQAPRLLIYKVSNRFPGVPDRFSGSGSGTDFTLKISRVEAEDVGVYYCAQGTSVPFTFGQGTKLEIK
B8: dBBDu183H A100fE / dBBDu072L (antibody, name in Kabat numbering, V domains shown)
VH: QVQLVESGGGLVQPGRSLRLSCAASGFTFSNAWMHWVRQAPGKGLEWVAQIKDKGNAYAAYYAPSVKGRFTISRDDSKNSIYLQMNSLKTEDTAVYYCHYVHYASASTVLPEFGVDAWGQGTTVTVSS
VL: DIVMTQSPLSLPVTPGEPASISCQASQELVHMNRNTYLHWYQQKPGQAPRLLIYKVSNRFPGVPDRFSGSGSGTDFTLKISRVEAEDVGVYYCAQGTSVPFTFGQGTKLEIK
B9: dBBDu183H Y97H / dBBDu072L (antibody, name in Kabat numbering, V domains shown)
VH: QVQLVESGGGLVQPGRSLRLSCAASGFTFSNAWMHWVRQAPGKGLEWVAQIKDKGNAYAAYYAPSVKGRFTISRDDSKNSIYLQMNSLKTEDTAVYYCHYVHHASASTVLPAFGVDAWGQGTTVTVSS
VL: DIVMTQSPLSLPVTPGEPASISCQASQELVHMNRNTYLHWYQQKPGQAPRLLIYKVSNRFPGVPDRFSGSGSGTDFTLKISRVEAEDVGVYYCAQGTSVPFTFGQGTKLEIK
B10: dBBDu183H A98H / dBBDu072L (antibody, name in Kabat numbering, V domains shown)
VH: QVQLVESGGGLVQPGRSLRLSCAASGFTFSNAWMHWVRQAPGKGLEWVAQIKDKGNAYAAYYAPSVKGRFTISRDDSKNSIYLQMNSLKTEDTAVYYCHYVHYHSASTVLPAFGVDAWGQGTTVTVSS
VL: DIVMTQSPLSLPVTPGEPASISCQASQELVHMNRNTYLHWYQQKPGQAPRLLIYKVSNRFPGVPDRFSGSGSGTDFTLKISRVEAEDVGVYYCAQGTSVPFTFGQGTKLEIK
B11: dBBDu183H Y94H / dBBDu072L (antibody, name in Kabat numbering, V domains shown)
VH: QVQLVESGGGLVQPGRSLRLSCAASGFTFSNAWMHWVRQAPGKGLEWVAQIKDKGNAYAAYYAPSVKGRFTISRDDSKNSIYLQMNSLKTEDTAVYYCHHVHYASASTVLPAFGVDAWGQGTTVTVSS
VL: DIVMTQSPLSLPVTPGEPASISCQASQELVHMNRNTYLHWYQQKPGQAPRLLIYKVSNRFPGVPDRFSGSGSGTDFTLKISRVEAEDVGVYYCAQGTSVPFTFGQGTKLEIK
B12: dBBDu183H T100bE / dBBDu072L (antibody, name in Kabat numbering, V domains shown)
VH: QVQLVESGGGLVQPGRSLRLSCAASGFTFSNAWMHWVRQAPGKGLEWVAQIKDKGNAYAAYYAPSVKGRFTISRDDSKNSIYLQMNSLKTEDTAVYYCHYVHYASASEVLPAFGVDAWGQGTTVTVSS
VL: DIVMTQSPLSLPVTPGEPASISCQASQELVHMNRNTYLHWYQQKPGQAPRLLIYKVSNRFPGVPDRFSGSGSGTDFTLKISRVEAEDVGVYYCAQGTSVPFTFGQGTKLEIK
B13: dBBDu183H V100iH / dBBDu072L (antibody, name in Kabat numbering, V domains shown)
VH: QVQLVESGGGLVQPGRSLRLSCAASGFTFSNAWMHWVRQAPGKGLEWVAQIKDKGNAYAAYYAPSVKGRFTISRDDSKNSIYLQMNSLKTEDTAVYYCHYVHYASASTVLPAFGHDAWGQGTTVTVSS
VL: DIVMTQSPLSLPVTPGEPASISCQASQELVHMNRNTYLHWYQQKPGQAPRLLIYKVSNRFPGVPDRFSGSGSGTDFTLKISRVEAEDVGVYYCAQGTSVPFTFGQGTKLEIK
B14: dBBDu183H A100H / dBBDu072L (antibody, name in Kabat numbering, V domains shown)
VH: QVQLVESGGGLVQPGRSLRLSCAASGFTFSNAWMHWVRQAPGKGLEWVAQIKDKGNAYAAYYAPSVKGRFTISRDDSKNSIYLQMNSLKTEDTAVYYCHYVHYASHSTVLPAFGVDAWGQGTTVTVSS
VL: DIVMTQSPLSLPVTPGEPASISCQASQELVHMNRNTYLHWYQQKPGQAPRLLIYKVSNRFPGVPDRFSGSGSGTDFTLKISRVEAEDVGVYYCAQGTSVPFTFGQGTKLEIK
B15: dBBDu183H V100iE / dBBDu072L (antibody, name in Kabat numbering, V domains shown)
VH: QVQLVESGGGLVQPGRSLRLSCAASGFTFSNAWMHWVRQAPGKGLEWVAQIKDKGNAYAAYYAPSVKGRFTISRDDSKNSIYLQMNSLKTEDTAVYYCHYVHYASASTVLPAFGEDAWGQGTTVTVSS
VL: DIVMTQSPLSLPVTPGEPASISCQASQELVHMNRNTYLHWYQQKPGQAPRLLIYKVSNRFPGVPDRFSGSGSGTDFTLKISRVEAEDVGVYYCAQGTSVPFTFGQGTKLEIK
B16: dBBDu183H A102E / dBBDu072L (antibody, name in Kabat numbering, V domains shown)
VH: QVQLVESGGGLVQPGRSLRLSCAASGFTFSNAWMHWVRQAPGKGLEWVAQIKDKGNAYAAYYAPSVKGRFTISRDDSKNSIYLQMNSLKTEDTAVYYCHYVHYASASTVLPAFGVDEWGQGTTVTVSS
VL: DIVMTQSPLSLPVTPGEPASISCQASQELVHMNRNTYLHWYQQKPGQAPRLLIYKVSNRFPGVPDRFSGSGSGTDFTLKISRVEAEDVGVYYCAQGTSVPFTFGQGTKLEIK
B17: dBBDu183H S100aH / dBBDu072L (antibody, name in Kabat numbering, V domains shown)
VH: QVQLVESGGGLVQPGRSLRLSCAASGFTFSNAWMHWVRQAPGKGLEWVAQIKDKGNAYAAYYAPSVKGRFTISRDDSKNSIYLQMNSLKTEDTAVYYCHYVHYASAHTVLPAFGVDAWGQGTTVTVSS
VL: DIVMTQSPLSLPVTPGEPASISCQASQELVHMNRNTYLHWYQQKPGQAPRLLIYKVSNRFPGVPDRFSGSGSGTDFTLKISRVEAEDVGVYYCAQGTSVPFTFGQGTKLEIK
B18: dBBDu183H L100dH / dBBDu072L (antibody, name in Kabat numbering, V domains shown)
VH: QVQLVESGGGLVQPGRSLRLSCAASGFTFSNAWMHWVRQAPGKGLEWVAQIKDKGNAYAAYYAPSVKGRFTISRDDSKNSIYLQMNSLKTEDTAVYYCHYVHYASASTVHPAFGVDAWGQGTTVTVSS
VL: DIVMTQSPLSLPVTPGEPASISCQASQELVHMNRNTYLHWYQQKPGQAPRLLIYKVSNRFPGVPDRFSGSGSGTDFTLKISRVEAEDVGVYYCAQGTSVPFTFGQGTKLEIK
B19: dBBDu183H H93K / dBBDu072L (antibody, name in Kabat numbering, V domains shown)
VH: QVQLVESGGGLVQPGRSLRLSCAASGFTFSNAWMHWVRQAPGKGLEWVAQIKDKGNAYAAYYAPSVKGRFTISRDDSKNSIYLQMNSLKTEDTAVYYCKYVHYASASTVLPAFGVDAWGQGTTVTVSS
VL: DIVMTQSPLSLPVTPGEPASISCQASQELVHMNRNTYLHWYQQKPGQAPRLLIYKVSNRFPGVPDRFSGSGSGTDFTLKISRVEAEDVGVYYCAQGTSVPFTFGQGTKLEIK
B20: dBBDu183H T100bH / dBBDu072L (antibody, name in Kabat numbering, V domains shown)
VH: QVQLVESGGGLVQPGRSLRLSCAASGFTFSNAWMHWVRQAPGKGLEWVAQIKDKGNAYAAYYAPSVKGRFTISRDDSKNSIYLQMNSLKTEDTAVYYCHYVHYASASHVLPAFGVDAWGQGTTVTVSS
VL: DIVMTQSPLSLPVTPGEPASISCQASQELVHMNRNTYLHWYQQKPGQAPRLLIYKVSNRFPGVPDRFSGSGSGTDFTLKISRVEAEDVGVYYCAQGTSVPFTFGQGTKLEIK

Sequence of Human CD137 ECD (human) (chain, as listed by the source limits assumed): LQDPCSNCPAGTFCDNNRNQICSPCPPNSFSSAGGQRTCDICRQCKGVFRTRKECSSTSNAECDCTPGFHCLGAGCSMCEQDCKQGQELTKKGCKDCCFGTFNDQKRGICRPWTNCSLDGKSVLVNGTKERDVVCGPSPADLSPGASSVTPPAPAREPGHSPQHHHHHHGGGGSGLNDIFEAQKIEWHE

This experiment has as its target Human CD137 ECD (human). The experiment is described as follows: SPR, vs parent H183/L072. (SPR reads the build-up and loss of mass on a sensor chip optically.)
For B1, the fold change of affinity was 0 fold.

Consider B2, for which the fold change of affinity stood at 0 fold.

With B3, the fold change of affinity came to 0 fold.

B4: the fold change of affinity amounted to 0 fold.

As for B5, the fold change of affinity amounted to 0 fold.

As for B6, the fold change of affinity amounted to 0 fold.

For B7, the fold change of affinity turned out to be 0 fold.

As for B8, the fold change of affinity stood at 0 fold.

With B9, the fold change of affinity was 0 fold.

For B10, the fold change of affinity was 0 fold.

As for B11, the fold change of affinity came to 0 fold.

With B12, the fold change of affinity is 0 fold.

Regarding B13, the fold change of affinity amounted to 0 fold.

With B14, the fold change of affinity came out at 0 fold.

Regarding B15, the fold change of affinity was 0 fold.

Take B16: the fold change of affinity came to 0 fold.

With B17, the fold change of affinity came to 0 fold.

B18: the fold change of affinity turned out to be 0 fold.

With B19, the fold change of affinity came to 0 fold.

With B20, the fold change of affinity was found to be 0 fold.
